Laboratory results reported in the supplement of paper PMC9112550, “Optimization of the antimicrobial peptide Bac7 by deep mutational scanning” (BMC Biology, 2022).

Tested on: Escherichia coli TOP10
Assay: shrunken log2 fold change of peptide-encoding DNA abundance (4.5 h post-induction vs induction); higher = less antimicrobial activity (less host growth inhibition)
Conditions: time post-induction: 4.5 h; library: site-saturation at positions 5, 18, 19, 20
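Note: peptides expressed intracellularly from a pBAD plasmid library in pooled LB shake-flask culture, induced with 0.3% L-arabinose, DNA abundance read by NGS, three biological replicates, DESeq2 with apeglm shrinkage.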

RRIRERPPRLPRPRPRPDHIPRP
shrunken log2 fold change: -0.537

RRIRTRPPRLPRPRPRPRMYPRP
shrunken log2 fold change: 0.0541

RRIRIRPPRLPRPRPRPYTSPRP
shrunken log2 fold change: -0.434

RRIRHRPPRLPRPRPRPCSEPRP
shrunken log2 fold change: 0.0248

RRIRCRPPRLPRPRPRPKQAPRP
shrunken log2 fold change: -0.0334

RRIRSRPPRLPRPRPRPKKNPRP
shrunken log2 fold change: 0.267

RRIRHRPPRLPRPRPRPTVSPRP
shrunken log2 fold change: -0.0706

RRIRKRPPRLPRPRPRPHPYPRP
shrunken log2 fold change: -0.0228

RRIRARPPRLPRPRPRPGHAPRP
shrunken log2 fold change: 0.16

RRIRGRPPRLPRPRPRPISSPRP
shrunken log2 fold change: 0.393

RRIRTRPPRLPRPRPRPQVRPRP
shrunken log2 fold change: 0.0794

RRIRTRPPRLPRPRPRPKWYPRP
shrunken log2 fold change: -0.468

RRIRYRPPRLPRPRPRPHLHPRP
shrunken log2 fold change: -1.12

RRIRCRPPRLPRPRPRPFIDPRP
shrunken log2 fold change: -0.464

RRIRFRPPRLPRPRPRPDMHPRP
shrunken log2 fold change: 0.191

RRIRDRPPRLPRPRPRPFDGPRP
shrunken log2 fold change: -0.192

RRIRKRPPRLPRPRPRPRHQPRP
shrunken log2 fold change: 1.82

RRIRMRPPRLPRPRPRPEWVPRP
shrunken log2 fold change: 0.32

RRIRSRPPRLPRPRPRPDMWPRP
shrunken log2 fold change: -0.409

RRIRSRPPRLPRPRPRPVRSPRP
shrunken log2 fold change: 0.255

RRIRERPPRLPRPRPRPVRHPRP
shrunken log2 fold change: 0.131

RRIRFRPPRLPRPRPRPHAAPRP
shrunken log2 fold change: 0.062

RRIRKRPPRLPRPRPRPVEQPRP
shrunken log2 fold change: 0.12

RRIRMRPPRLPRPRPRPEIIPRP
shrunken log2 fold change: 2.84

RRIRIRPPRLPRPRPRPGCKPRP
shrunken log2 fold change: -0.0374

RRIRNRPPRLPRPRPRPSDNPRP
shrunken log2 fold change: -0.494

RRIRPRPPRLPRPRPRPSICPRP
shrunken log2 fold change: -0.718

RRIRKRPPRLPRPRPRPRCGPRP
shrunken log2 fold change: 0.451

RRIRMRPPRLPRPRPRPPTSPRP
shrunken log2 fold change: 1.23

RRIRGRPPRLPRPRPRPGYFPRP
shrunken log2 fold change: 3.3

RRIRARPPRLPRPRPRPMLIPRP
shrunken log2 fold change: 0.0528

RRIRMRPPRLPRPRPRPNHRPRP
shrunken log2 fold change: -0.113

RRIRERPPRLPRPRPRPSSKPRP
shrunken log2 fold change: -0.639

RRIRWRPPRLPRPRPRPKWIPRP
shrunken log2 fold change: -0.0267

RRIRIRPPRLPRPRPRPFLHPRP
shrunken log2 fold change: -0.787

RRIRWRPPRLPRPRPRPKLMPRP
shrunken log2 fold change: 0.31

RRIRSRPPRLPRPRPRPHQKPRP
shrunken log2 fold change: -0.189

RRIRVRPPRLPRPRPRPTELPRP
shrunken log2 fold change: 0.324

RRIRVRPPRLPRPRPRPTMVPRP
shrunken log2 fold change: 0.0376

RRIRGRPPRLPRPRPRPGNEPRP
shrunken log2 fold change: 0.0696

RRIRTRPPRLPRPRPRPRDCPRP
shrunken log2 fold change: 0.057

RRIRQRPPRLPRPRPRPNYNPRP
shrunken log2 fold change: -0.0928

RRIRYRPPRLPRPRPRPTELPRP
shrunken log2 fold change: 0.0588

RRIRMRPPRLPRPRPRPFMSPRP
shrunken log2 fold change: 0.0642

RRIRQRPPRLPRPRPRPSVKPRP
shrunken log2 fold change: -0.0362

RRIRARPPRLPRPRPRPDIVPRP
shrunken log2 fold change: 0.244

RRIRIRPPRLPRPRPRPSRKPRP
shrunken log2 fold change: -0.148

RRIRARPPRLPRPRPRPMAFPRP
shrunken log2 fold change: 0.0104

RRIRYRPPRLPRPRPRPNHYPRP
shrunken log2 fold change: -0.739

RRIRWRPPRLPRPRPRPLMDPRP
shrunken log2 fold change: 0.185

RRIRVRPPRLPRPRPRPLWCPRP
shrunken log2 fold change: -0.303

RRIRCRPPRLPRPRPRPCCRPRP
shrunken log2 fold change: -0.106

RRIRPRPPRLPRPRPRPVEAPRP
shrunken log2 fold change: 0.481

RRIRKRPPRLPRPRPRPKQDPRP
shrunken log2 fold change: 0.119

RRIRDRPPRLPRPRPRPNDCPRP
shrunken log2 fold change: -0.0197

RRIRLRPPRLPRPRPRPVWKPRP
shrunken log2 fold change: -0.0133

RRIRIRPPRLPRPRPRPKLDPRP
shrunken log2 fold change: -0.106

RRIRWRPPRLPRPRPRPNICPRP
shrunken log2 fold change: 0.0504

RRIRWRPPRLPRPRPRPDLRPRP
shrunken log2 fold change: -0.00728

RRIRARPPRLPRPRPRPSDPPRP
shrunken log2 fold change: -0.0252

RRIRRRPPRLPRPRPRPFWMPRP
shrunken log2 fold change: 0.0323

RRIRFRPPRLPRPRPRPWPKPRP
shrunken log2 fold change: 0.125

RRIRCRPPRLPRPRPRPENNPRP
shrunken log2 fold change: -0.303

RRIRLRPPRLPRPRPRPTYNPRP
shrunken log2 fold change: -0.869

RRIRQRPPRLPRPRPRPSLGPRP
shrunken log2 fold change: -0.162

RRIRHRPPRLPRPRPRPQGSPRP
shrunken log2 fold change: -0.109

RRIRGRPPRLPRPRPRPSHFPRP
shrunken log2 fold change: -0.621

RRIRSRPPRLPRPRPRPKGQPRP
shrunken log2 fold change: 0.0791

RRIRQRPPRLPRPRPRPVTIPRP
shrunken log2 fold change: -0.0898

RRIRGRPPRLPRPRPRPWEFPRP
shrunken log2 fold change: -0.0208

RRIRVRPPRLPRPRPRPYFDPRP
shrunken log2 fold change: -0.609

RRIRSRPPRLPRPRPRPPVLPRP
shrunken log2 fold change: 0.0563

RRIRHRPPRLPRPRPRPKCCPRP
shrunken log2 fold change: -0.0444

RRIRMRPPRLPRPRPRPNVNPRP
shrunken log2 fold change: 0.148

RRIRERPPRLPRPRPRPGPPPRP
shrunken log2 fold change: 0.317

RRIRRRPPRLPRPRPRPWTSPRP
shrunken log2 fold change: -0.0576

RRIRIRPPRLPRPRPRPSTLPRP
shrunken log2 fold change: -0.726

RRIRARPPRLPRPRPRPVIPPRP
shrunken log2 fold change: -0.296

RRIRKRPPRLPRPRPRPVRTPRP
shrunken log2 fold change: 0.583

RRIRMRPPRLPRPRPRPKFLPRP
shrunken log2 fold change: 0.192

RRIRIRPPRLPRPRPRPHDCPRP
shrunken log2 fold change: -0.123

RRIRWRPPRLPRPRPRPWCYPRP
shrunken log2 fold change: -0.475

RRIRFRPPRLPRPRPRPCLQPRP
shrunken log2 fold change: 0.0975

RRIRFRPPRLPRPRPRPQPHPRP
shrunken log2 fold change: 0.166

RRIRHRPPRLPRPRPRPGSRPRP
shrunken log2 fold change: -0.168

RRIRRRPPRLPRPRPRPQSPPRP
shrunken log2 fold change: 0.281

RRIRPRPPRLPRPRPRPYKRPRP
shrunken log2 fold change: -0.345

RRIRARPPRLPRPRPRPAPLPRP
shrunken log2 fold change: 0.367

RRIRVRPPRLPRPRPRPVTNPRP
shrunken log2 fold change: -0.68

RRIRDRPPRLPRPRPRPNCKPRP
shrunken log2 fold change: 0.135

RRIRGRPPRLPRPRPRPKEIPRP
shrunken log2 fold change: 0.57

RRIRRRPPRLPRPRPRPGFRPRP
shrunken log2 fold change: 0.331

RRIRCRPPRLPRPRPRPAKLPRP
shrunken log2 fold change: 0.0355

RRIRFRPPRLPRPRPRPAVDPRP
shrunken log2 fold change: 0.43

RRIRSRPPRLPRPRPRPHGTPRP
shrunken log2 fold change: -0.161

RRIRWRPPRLPRPRPRPGCKPRP
shrunken log2 fold change: 0.123

RRIRSRPPRLPRPRPRPLFNPRP
shrunken log2 fold change: -0.632

RRIRYRPPRLPRPRPRPTAQPRP
shrunken log2 fold change: 0.0778

RRIRDRPPRLPRPRPRPSVYPRP
shrunken log2 fold change: -0.404

RRIRRRPPRLPRPRPRPNQSPRP
shrunken log2 fold change: -0.13

RRIRVRPPRLPRPRPRPRFMPRP
shrunken log2 fold change: -0.459

RRIRPRPPRLPRPRPRPRGIPRP
shrunken log2 fold change: -0.176

RRIRPRPPRLPRPRPRPELRPRP
shrunken log2 fold change: -0.0276

RRIRKRPPRLPRPRPRPADHPRP
shrunken log2 fold change: 0.111

RRIRQRPPRLPRPRPRPIIEPRP
shrunken log2 fold change: -0.504

RRIRQRPPRLPRPRPRPKQMPRP
shrunken log2 fold change: 0.114

RRIRLRPPRLPRPRPRPDDQPRP
shrunken log2 fold change: 0.101

RRIRTRPPRLPRPRPRPRIPPRP
shrunken log2 fold change: 0.00212

RRIRVRPPRLPRPRPRPADMPRP
shrunken log2 fold change: -0.173

RRIRIRPPRLPRPRPRPFIIPRP
shrunken log2 fold change: -1.76

RRIRNRPPRLPRPRPRPANWPRP
shrunken log2 fold change: 0.182

RRIRARPPRLPRPRPRPPHRPRP
shrunken log2 fold change: 0.931

RRIRQRPPRLPRPRPRPAHTPRP
shrunken log2 fold change: 0.379

RRIRWRPPRLPRPRPRPNMQPRP
shrunken log2 fold change: -0.0262

RRIRCRPPRLPRPRPRPHTDPRP
shrunken log2 fold change: -0.246

RRIRQRPPRLPRPRPRPGWRPRP
shrunken log2 fold change: 2.71

RRIRNRPPRLPRPRPRPNPWPRP
shrunken log2 fold change: 0.107

RRIRHRPPRLPRPRPRPITWPRP
shrunken log2 fold change: -0.149

RRIRKRPPRLPRPRPRPNSKPRP
shrunken log2 fold change: 0.0385

RRIRSRPPRLPRPRPRPWMHPRP
shrunken log2 fold change: -0.0312

RRIRMRPPRLPRPRPRPNDMPRP
shrunken log2 fold change: -0.204

RRIRMRPPRLPRPRPRPRSLPRP
shrunken log2 fold change: 0.27

RRIRQRPPRLPRPRPRPTNRPRP
shrunken log2 fold change: 0.0327

RRIRKRPPRLPRPRPRPYEYPRP
shrunken log2 fold change: 0.0169

RRIRSRPPRLPRPRPRPASEPRP
shrunken log2 fold change: -0.00793
